For the assay, the target named is Human sapovirus (HuSaV) GI.6 capsid protein VP1, Nichinan strain, self-assembled as a virus-like particle (VLP) (human sapovirus GI.6, Nichinan strain). The assay is described as follows: cryo-EM structure; single-particle cryo-EM of purified VLPs in Express Five SFM, icosahedral symmetry imposed, 2.9 Å; de novo atomic model.

As usually defined, the stoichiometry N is the number of molecules, sites or subunits per partner or assembly. In turn, “Human sapovirus (HuSaV) GI.6 capsid protein VP1, Nichinan strain, self-assembled as a virus-like particle (VLP) (natural protein)” gave a stoichiometry N of 180 copies.

Source of the values: publication PMC9093105.
